Target: T1, CCK2R on AR42J cells (UniProt P30553 1-452, limits assumed)
T1 construct: whole, on cells
T1 sequence (looked up): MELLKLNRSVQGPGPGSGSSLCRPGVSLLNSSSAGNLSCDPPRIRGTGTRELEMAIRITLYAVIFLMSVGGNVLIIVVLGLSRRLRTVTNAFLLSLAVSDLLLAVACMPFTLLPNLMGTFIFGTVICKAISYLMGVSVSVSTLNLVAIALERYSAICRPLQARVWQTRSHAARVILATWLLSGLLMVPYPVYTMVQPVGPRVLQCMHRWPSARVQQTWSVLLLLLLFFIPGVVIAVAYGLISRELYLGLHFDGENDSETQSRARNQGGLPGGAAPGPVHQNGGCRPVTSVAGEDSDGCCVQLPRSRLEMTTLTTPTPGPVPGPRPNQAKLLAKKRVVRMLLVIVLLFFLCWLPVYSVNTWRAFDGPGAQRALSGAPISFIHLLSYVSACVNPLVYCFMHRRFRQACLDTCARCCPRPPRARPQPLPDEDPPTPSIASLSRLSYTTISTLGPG
Experiment: displacement of ^125I-BH-CCK8 from AR42J cells
Procedure: For these experiments, AR42J cells were expanded in vitro in 175 mm flasks and grown to subconfluence in the growth medium containing 10% FCS. All binding assays were performed 36-48 h after seeding the cells in culture medium containing 10% FCS and 2% glutamine. Before the start of the binding assays, the cells in culture were washed with Hanks Balanced salt solution (HBSS) (GIBCO) containing 0.1% BSA and 25 mM HEPES (Sigma) and scraped with a rubber policeman into conical tissue culture polystyrene tubes. Cells were centrifuged at 500 g for 5 min and resuspended in HBSS at a concentration of 2×10⁶ cells/ml. Aliquots (˜1.0 ml) of suspended cells in polystyrene tubes were used in the binding assays. […] Binding assays were performed at 37° C. for 30-60 min at pH 6.5 (optimal for binding).
Non-specific binding was determined in the presence of 1000× excess of the non-labeled homologous peptide. At the end of the incubation, the cells were pelleted and washed twice with 1 ml of fresh ice-cold HBSS plus 0.1% BSA. Cell pellets were counted for ¹²⁵I in a gamma counter with ˜70% efficiency for ¹²⁵I.

B1: full-length recombinant human PG1-80 (rhPG) (ligand)
chain: SWKPRSQQPDAPLGTGANRDLELPWLEQQGPASHHRRQLGPQGPPHLVADPSKKQGPWLEEEEEAYGWMDFGRRSAEDEN
notes: Expressed in E. coli from pET32 as a thioredoxin fusion and purified; also called recombinant human progastrin; progastrin
  binding result: no binding

From patent US20080187577A1 (University of Texas, published 2008)
